Results as given in patent US20210009673A1, “METHODS FOR REGULATING BREAST CANCERS” (priority 2018, published 2021).

How the values were obtained:
Src = test: phospho-Src tyrosine 416 Western blot in PTN-stimulated U87MG cells; format: cell-based, human; conditions: 50 ng PTN/ml for 5, 10, 15 minutes
MCF10A cells = test: morphological epithelial to mesenchymal transition in transfected MCF10A cells; format: cell-based; conditions: MCF10A cells transfected with RPTPβ/ζ and ALK, stimulated with PTN
Protocol: FIG. 4: FIG. 4 illustrates in: (A), β-catenin phosphorylated by ALK at tyrosine 333 decreases the association of β-catenin with cadherin. Recombinant E-cadherin serine 692 was phosphorylated with CK2 and GSK3β and incubated with recombinant GST-β-catenin, with GST-β-catenin phosphorylated in vitro by ALK, with GST-β-catenin Y333F, or with GST-β-catenin K292A, Y333F, K335A. The GST-conjugated proteins were captured with glutathione-conjugated beads and the phospho-Ser692-E-cadherin that associated with the GST-conjugated proteins was eluted and analyzed in Western blots probed with anti-β-catenin and anti-E-cadherin antibodies. […] After incubation for 20 minutes at 37° C., β-catenin was then captured with glutathione beads and, after extensive washing, eluted with SDS buffer and analyzed in Western blots with either anti-pan-cadherin antibodies, anti-phospho-tyrosine antibodies, or anti-β-catenin antibodies to determine if β-catenin phosphorylated by ALK at tyrosine 333 associates with cadherin. […] The ratio of cells dissociated in calcium-containing media (NTC) vs. the cells dissociated in calcium-free media (NTE) (a “dissociation index,” see Experimental Procedures) was measured. […] The morphological appearance was then analyzed 36 hours later and compared with cells transfected with an equal amount of control empty vector. […]

β-catenin = test: ubiquitination of β-catenin in HUVS cells (Rad23 capture); format: cell-based, human; conditions: 15 and 30 minutes after stimulation with PTN
Protocol: FIG. 12: FIG. 12 illustrates: human umbilical vein stromal cells not stimulated (lane 1) or stimulated with 50 ng/ml of PTN for 15 (lane 2), or 30 minutes (lane 3) were used to prepare cell lysates that were incubated with Rad23-conjugated agarose beads to pull-down ubiquitinated proteins and analyzed in Western-blots probed with anti-β-catenin antibodies (upper panel) and reprobed with anti-ubiquitin antibodies (lower panel). Cells pre-incubated with LY294002 were stimulated with PTN for 15 minutes (lane 4). Cells pre-incubated with lactacystin were stimulated with PTN for 15 minutes (lane 5).
Human umbilical vein stromal cells were lysed in a buffer prepared with 50 mM Tris, pH 7.2, 150 mM NaCl pH 7.5, 1% NP40, 0.25% sodium deoxicholate, Complete EDTA-free Protease Inhibitor Cocktail and 2 mM sodium orthovanadate. […] The beads were washed 4 times with lysis buffer and analyzed using Western blots.
β-catenin is rapidly degraded through the ubiquitin proteasome proteolytic pathway, thereby setting steady state levels of β-catenin by balancing its degradation with new synthesis of this key regulatory protein. […] Proteins captured with Rad23 Sepharose were eluted and analyzed in Western blots probed with anti-β-catenin antibodies (FIG. 12, upper panel) and the blots were reprobed with anti-ubiquitin antibodies (FIG. 12, lower panel). […]

Akt = test: phosphorylation of Akt in PTN-stimulated HUVS cells; format: cell-based, human; conditions: PTN 50 ng/ml, 5 minutes, elevated at 20 minutes
Protocol: FIG. 11: FIG. 11 illustrates: human umbilical vein stromal cells not stimulated or stimulated with 50 ng/ml of PTN for 2, 5, 10 or 20 minutes were used to prepare cell lysates that were analyzed in Western blots probed with anti-phospho threonine 308 Akt (panel A), anti-phospho serine 473 Akt (panel B), anti-phospho-serine 9 GSK3β (panel C), anti-phospho-serine 33, 37 and […] β-catenin (panel D) or anti-actin antibodies (panel E). Akt was immunoprecipitated from those lysates using anti-Akt antibodies, incubated with a fusion peptide containing the 20 N-terminal amino acids of GSK3β and analyzed in Western-blots probed using anti-phospho-serine 9 GSK3β antibodies (panel F).
To pursue this pathway of nuclear import of β-catenin, HUVS cells were stimulated with PTN (50 ng/ml), lysed, and analyzed in Western blots probed with anti-phosphothreonine 308 Akt or anti-phosphoserine 473 Akt antibodies (FIG. 11, panel A and B). […]
The association of adaptor proteins that associate with specific phosphorylated sites in activated EGFR are responsible for the activation of phosphatidyl-inositol 3-kinase (PI3K). […] The cells were stimulated with PTN for 2, 5, 10, and 20 minutes, cell lysates were prepared, and the lysates were analyzed in Western blots probed with anti-phospho-Akt (Ser473), anti-phospho-GSKβ (Ser9), and anti-phospho-β-catenin (Thr42) antibodies. […]

B1: pleiotrophin (protein, UniProt P21246 33-168, looked up)
Pleiotrophin: GKKEKPEKKVKKSDCGEWQWSVCVPTSGDCGLGTREGTRTGAECKQTMKTQRCKIPCNWKKQFGAECKYQFQAWGECDLNTALKTRTGSLKRALHNAECQKTVTISKPCGKLTKPKPQAESKKKKKEGKKQEKMLD
B1 was tested, and the “tyrosine phosphorylation of Src tyrosine 416” value (Src) was “not increased”, the cell morphology (MCF10A cells) was “assumed a mesenchymal fibroblast-like shape” and the “ubiquitinated β-catenin” value (β-catenin) was “decreased sharply”. For the same molecule, the “phosphorylation of Akt threonine 308 and serine 473” value (Akt) was “rapid increase”.
